The values below come from paper PMC8459022 (Frontiers in Plant Science, 2021).

The target in experiment [1] is T1, recombinant human PD-1 His tag protein (Homo sapiens, UniProt Q15116). Description: cell-based or functional assay.
T1 sequence (Q15116 25-170): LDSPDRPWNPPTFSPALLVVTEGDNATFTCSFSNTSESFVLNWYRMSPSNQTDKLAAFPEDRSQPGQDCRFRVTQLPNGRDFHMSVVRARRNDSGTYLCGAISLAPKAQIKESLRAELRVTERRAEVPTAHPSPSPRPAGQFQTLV
Experiment [2] deals with T1, recombinant human PD-1 His tag protein. Description: SPR; Biacore T200, antibody (3 ug/ml) captured on protein G sensor chip in HBS-EP; single-cycle kinetics with human PD-1 His tag at 10, 20, 40, 80 and 160 nM, 30 ul/min, 60 s association, 120 s dissociation; Langmuir 1:1 model. Conditions: both partners purified. On the technique in general: SPR reads the build-up and loss of mass on a sensor chip optically.

Experiment [3] concerns the target T2, recombinant human PD-1 His tag protein (Homo sapiens, UniProt Q15116).
T2 construct: programmed cell death protein 1 (PD-1), human; recombinant, R&D Systems 8986-PD; also called programmed cell death protein 1; source: bought: R&D Systems
Description: SPR; Biacore T200; antibodies (3 ug/ml in HBS-EP) captured on a protein G sensor chip; human PD-1 His tag injected at 10, 20, 40, 80 and 160 nM, single-cycle kinetics, 30 ul/min, 60 s association, 120 s dissociation; Langmuir 1:1 model. The following applies: both partners purified.
T2 sequence (Q15116 25-170): as above

B1: plant-produced Pembrolizumab (antibody, V domains shown)
VH: QVQLVQSGVEVKKPGASVKVSCKASGYTFTNYYMYWVRQAPGQGLEWMGGINPSNGGTNFNEKFKNRVTLTTDSSTTTAYMELKSLQFDDTAVYYCARRDYRFDMGFDYWGQGTTVTVSS
VL: EIVLTQSPATLSLSPGERATLSCRASKGVSTSGYSYLHWYQQKPGQAPRLLIYLASYLESGVPARFSGSGSGTDFTLTISSLEPEDFAVYYCQHSRDLPLTFGGGTKVEIK
notes: Pembrolizumab heavy chain; DrugBank DB09037; Pembrolizumab light chain (kappa); IgG4 kappa antibody; assembled as full IgG (150 kDa) by non-reducing SDS-PAGE and SEC; also called Pem WT; anti-human PD-1 monoclonal antibody produced in Nicotiana benthamiana; copies: 2 + 2
For the molecule B1, the “PD-1/PD-L1 blockade bioassay (luciferase reporter; Jurkat/PD-1 effector cells with CHO-K1/PD-L1 cells, 6 h); EC50 of blocking PD-1 with PD-L1” value in experiment [1] came to 0.147 µg/mL. Also, in experiment [2], the Kd is 8.51 nM.

B2: Keytruda (mammalian cell-produced commercial Pembrolizumab) (antibody, V domains shown)
VH: QVQLVQSGVEVKKPGASVKVSCKASGYTFTNYYMYWVRQAPGQGLEWMGGINPSNGGTNFNEKFKNRVTLTTDSSTTTAYMELKSLQFDDTAVYYCARRDYRFDMGFDYWGQGTTVTVSS
VL: EIVLTQSPATLSLSPGERATLSCRASKGVSTSGYSYLHWYQQKPGQAPRLLIYLASYLESGVPARFSGSGSGTDFTLTISSLEPEDFAVYYCQHSRDLPLTFGGGTKVEIK
notes: Pembrolizumab heavy chain; as the heavy chain of m1 without the C-terminal SEKDEL; DrugBank DB09037; Pembrolizumab light chain; as the light chain of m1; Commercial drug product used as the positive control and comparator; source: bought: commercial Keytruda, mammalian cell-produced
Turning to B2, the “PD-1/PD-L1 blockade bioassay (luciferase reporter; Jurkat/PD-1 effector cells with CHO-K1/PD-L1 cells, 6 h); EC50 of blocking PD-1 with PD-L1” value in experiment [1] was 0.147 µg/mL. In addition, in experiment [2], the dissociation constant (Kd) came to 8.26 nM.

B3: commercial Pembrolizumab (Keytruda) (antibody, V domains shown)
VH: QVQLVQSGVEVKKPGASVKVSCKASGYTFTNYYMYWVRQAPGQGLEWMGGINPSNGGTNFNEKFKNRVTLTTDSSTTTAYMELKSLQFDDTAVYYCARRDYRFDMGFDYWGQGTTVTVSS
VL: EIVLTQSPATLSLSPGERATLSCRASKGVSTSGYSYLHWYQQKPGQAPRLLIYLASYLESGVPARFSGSGSGTDFTLTISSLEPEDFAVYYCQHSRDLPLTFGGGTKVEIK
notes: Pembrolizumab heavy chain; as the heavy chain of Wm1 without the C-terminal SEKDEL; Pembrolizumab light chain; as the light chain of Wm1; The commercial drug; also called mammalian cell-produced Pembrolizumab; source: bought: commercial Pembrolizumab (Keytruda), mammalian cell-produced
As to B3, in experiment [3], the koff was 0.00339 s⁻¹ and the on-rate constant (kon) was found to be 410000 M⁻¹ s⁻¹.

By Kd is commonly meant the concentration at which binding is half-saturated. A word on the koff: it is a measure of how fast the partners let go of each other. A word on the kon: it is a measure of how fast the partners come together.
